Experimental data taken from patent CN116284353A.

Target: 柯萨奇病毒A16型病毒样颗粒 (Coxsackievirus A16) (UniProt Q65900)
Assay: sandwich ELISA: rabbit anti-CV A16 VLP polyclonal serum (1:8000) as capture, CV A16 VLP titrated, mAb 10 ng/μL as detector; positive when OD450nm>0.15

Sequence of UniProt Q65900 (Q65900 2-862): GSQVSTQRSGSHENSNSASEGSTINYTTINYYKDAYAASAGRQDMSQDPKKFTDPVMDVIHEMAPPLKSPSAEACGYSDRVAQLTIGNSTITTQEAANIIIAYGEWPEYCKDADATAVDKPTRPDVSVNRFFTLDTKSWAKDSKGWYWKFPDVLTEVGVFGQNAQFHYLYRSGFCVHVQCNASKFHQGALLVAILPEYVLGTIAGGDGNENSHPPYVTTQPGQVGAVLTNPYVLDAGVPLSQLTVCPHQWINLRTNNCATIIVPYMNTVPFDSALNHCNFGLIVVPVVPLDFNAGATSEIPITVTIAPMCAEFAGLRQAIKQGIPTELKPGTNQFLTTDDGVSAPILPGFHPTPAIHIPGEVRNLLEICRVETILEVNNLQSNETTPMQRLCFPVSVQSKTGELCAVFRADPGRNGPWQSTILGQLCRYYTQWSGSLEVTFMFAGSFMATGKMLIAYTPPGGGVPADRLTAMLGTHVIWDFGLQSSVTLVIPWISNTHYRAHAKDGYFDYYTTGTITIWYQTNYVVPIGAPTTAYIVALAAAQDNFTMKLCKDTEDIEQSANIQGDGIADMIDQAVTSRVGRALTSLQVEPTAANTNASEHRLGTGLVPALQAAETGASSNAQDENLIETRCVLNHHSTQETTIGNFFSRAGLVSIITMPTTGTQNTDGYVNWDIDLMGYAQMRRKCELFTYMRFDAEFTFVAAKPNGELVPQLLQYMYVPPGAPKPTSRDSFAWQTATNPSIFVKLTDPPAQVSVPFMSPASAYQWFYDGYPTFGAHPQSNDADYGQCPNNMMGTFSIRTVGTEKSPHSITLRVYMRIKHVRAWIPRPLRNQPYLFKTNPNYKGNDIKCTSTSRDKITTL

B1: 单克隆抗体3H5 (antibody, mouse IgG1, kappa, V domains shown)
VH: EVKLEESGGGLVQPGGSMKLSCVGSGFTFSNYWMNWVRQSPDKGLEWVAEIRSKSNNYATHYAESVKGRLTISRDDSKSGVYLQMNNLRPEDTGIYYCTRSGAYWGQGTLVTVSA
VL: QIVLTQSPAIMSASPGEKVTMTCSASSSVSYIYWYQQKPGSSPRLLIYDTTRLASGVPVRFSGSGSGTSYSLTISRMEAEDAATYYCQHWNSYPFTFGSGTKLEIKR
- 最低检出限度: 62.5 ng/mL
